The test addresses Shp2 (UniProt Q06124). Description: GST pull-down from lysate, LC-MS/MS. The note with it: reference: wild-type GST-PD-1ICD; sites Y223,Y248.

Experimental findings from article PMC9287124 are described below.

“PD-1 ICD, 194-288 (from UniProt Q15116) PD-1ICD-FF (Y223F, Y248F)”: the “binding against the reference” value is “weaker”.
